{"source": "patent US20030022315A1", "key": {"[1]": {"target": "T1, full-length class E TetR (Escherichia coli) (UniProt P21337)", "T1 sequence": "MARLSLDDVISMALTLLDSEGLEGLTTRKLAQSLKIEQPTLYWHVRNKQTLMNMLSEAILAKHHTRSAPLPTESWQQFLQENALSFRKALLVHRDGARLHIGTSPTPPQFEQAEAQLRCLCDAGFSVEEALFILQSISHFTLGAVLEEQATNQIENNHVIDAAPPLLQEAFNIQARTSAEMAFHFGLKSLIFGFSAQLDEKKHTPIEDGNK"}, "[2]": {"target": "T2, full-length class C TetR (Escherichia coli) (UniProt P03039)", "T2 sequence": "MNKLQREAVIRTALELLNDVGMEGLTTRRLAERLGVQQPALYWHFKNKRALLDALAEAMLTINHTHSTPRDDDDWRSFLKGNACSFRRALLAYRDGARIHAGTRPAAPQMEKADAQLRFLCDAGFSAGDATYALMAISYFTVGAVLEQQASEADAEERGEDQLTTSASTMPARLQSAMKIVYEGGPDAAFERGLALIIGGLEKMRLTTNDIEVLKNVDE"}, "[3]": {"target": "full-length class B TetR (wild-type, Tn10-encoded) (Tn10-encoded (organism not stated))"}, "[4]": {"target": "full-length class D TetR (Escherichia coli) (UniProt P0ACT4)"}}}
{"binder": "deletion mutant of the Tn10-encoded class B TetR (Δ26-53) (protein) MSRLDKSKVINSALELLNEVGIEGLALAIEMLDRHHTHFCPLEGESWQDFLRNKAKSFRCALLSHRDGAKVHLGTRPTEKQYETLENQLAFLCQQGFSLENALYALSAVGHFTLGCVLEDQEHQVAKEERETPTTDSMPPLLRQAIELFDHQGAEPAFLFGLELIICGLEKQLKCESGS", "values": [{"measurement": "Factor of Transdominance (β-galactosidase activity with against without the deletion mutant)", "setting": "[1]", "result": 1, "unit": "fold"}, {"measurement": "Factor of Transdominance (β-galactosidase activity with against without the deletion mutant)", "setting": "[2]", "result": 2, "unit": "fold"}, {"measurement": "Factor of Transdominance (β-galactosidase activity with against without the deletion mutant)", "setting": "[3]", "result": 22, "unit": "fold"}, {"measurement": "Factor of Transdominance (β-galactosidase activity with against without the deletion mutant)", "setting": "[4]", "result": 1.1, "unit": "fold"}]}
